From the supplement of paper PMC9170038

What follows are sequences tested on MS2 coat protein (assay: apparent KD of MS2 coat protein; higher = weaker reporter binding). Details: Eterna round: R107; input ligand: arginine 13.2 mM.
Method: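 RNA-MaP round R107: designed RNA switches with theophylline, tryptophan, arginine or FMN aptamers are transcribed on-chip within common flanks. They are titrated with SNAP-549-labelled MS2 coat protein in RNA-MaP buffer (100 mM Tris pH 7.5, 80 mM KCl, 4 mM MgCl2), without ligand or with the indicated ligand. Median apparent KD per design.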

Row | Sequence | apparent KD of MS2 coat protein
1 | UUGUGGUAGGCGCAUACUCAUUUAUACAAGCGAGGACCGGUACGGCCGCCACUCGGAAUAAAACAUGAGGAUCACCCAUGUACCG [theeternabot_exclusion_MS2_Trp_A_50] | 12.9 nM

Same assay, conditions: Eterna round: R107; input ligand: none

Row | Sequence | apparent KD of MS2 coat protein
2 | UAUGCACAUGAGGAUCACCCAUGUAUGGAAGGAGCGGUGAAUGAACCAGGUAGGUCGCCAUGGUGAGGAUCAUCUAUGUAAUCGU [Exclusion - Arginine A (Freestyle 7)] | 86 nM
3 | CCCAGUUAGAUCAAAGGAAUUAUACUCGAAGGAGCGUCAUAGUAGGCAGGUAGGUCGCGAGACAUGAGGAUCACCCAUGUAGAGA [azqmullin] | 37.9 nM
4 | UGGUGUAGGGUAAAUAGGAUUAGUACAGAAGGAGCGCGAAUAAACGCAGGUAGGUCGCUGGAAUAAACAUGAGGAUCACCCAUGU [Same State Arginine A GF 27] | 19.2 nM
5 | GGAUAGGACACGGCCGCCACUAGCUAGGAUACUAGCAACAUUUCCUCGCAUGAGGAUCACCCAUGUAGGACCGGGUGUCCUAUCG | 462 nM
6 | AAAAUCCUCCAUGAGGAUCACCCAUGGGAAGGAGCGCCCGAAAGGGCAGGUAGGUCGCCCAUGAGGAUCACCCAUGGAACCUAAA [ArgAX 26 #DoubleMS2 #OpenEnded #AlternativeMS2] | 56.5 nM
7 | UUUCAGUGGACGGCCGCCACUGAAGUCGAUACAAUCAUGUAGAACAUGAGGAUCACCCAUGUAGUCAGGACCGGGUCCAAUGACU [Tryp B SS t3] | 22.9 nM
8 | UGCCGAGACGUGGAUUACCCGUGUACCGAAGGAGCGCCCGAAAGGGCAGGUAGGUCGCGGAGGACAUGAGGAUCACCCAUGUUGA | 73.7 nM
9 | UUAGAUUGCCGAAGGAGCGAGAUAGCCUACAUGAGGAUCACCCAUGUAGAAACGGGCUGAUCUCAGGUAGGUCGCGGCAGGUAGC [Soaquatan] | 26.2 nM
10 | UGAUUGAACGGAAGGAGCGUGUAAGAACAAGAACAUGAGGAUCACCCAUGUAUUAAUUUAACACAGGUAGGUCGCCGAGAGAUUG [11.D] | 14.6 nM
11 | UCGUGUGUUUCGGAUACCAGUGAAAUCGAUACAUGAGGAUCACCCAUGUGAGAGGAUGUACACCCUUGGCAGCUGUCUGUAUCGG [asczmullin] | 54.2 nM
12 | GGACUAACCAGAAGGAGCGACACAGCAGAAACUGCAAAUCCUCCGCACGAGGAUCACCCGUGUCAGGUAGGUCGCUGGUUAGUCG [ArgBX 28] | 49.5 nM
13 | AGUACAUGAGGAUCACCCAUGUAUCGGUACCGAGGACCGGUACGGCCGCCACUCGCAGGACAUGAGGAUCACCCAUGUGCAGCCG [SSTA DOUBLE!!! :-D #10] | 36.8 nM
14 | UGUAUGGACUGAAGGAGCGGAAGAUAGCUUGAGGAUCACCCAAGUAAUAAGGCGAAAGCCUUCCAGGUAGGUCGCAGUCCAUACU | 35.2 nM
15 | UGCCUAGACGUGGAUUACCCGUGUACCGAAGGAGCGCCCGAAAGGGCAGGUAGGUCGCGGAGGACAUGAGGAUCACCCAUGUUUG | 117 nM
16 | UGUAUGGACUGAAGGAGCGCCUCAAAAUAACAUGAGGAUCACCCAUGUGGCGAAAGCCUUGGGCAGGUAGGUCGCAGUCCAUACU [ArgBX 1 #StaticStem] | 49.9 nM
17 | CACAUGAGGAUCACCCAUGUCUGAACUGAAGGAGCGCUAAAUAAGGCAGGUAGGUCGCGGAAUCCCGGGUGCAUAUGCACCCGGG [9.aB] | 32 nM
18 | AAAAUCCUAUCUGAGGAUCACCCAGGUGAAGGAGCGCCCGAAAGGGCAGGUAGGUCGCACCUGAGGAUCACCCUGGUAAACCUAA [ArgEX 21 #DoubleMS2 #OpenEnded] | 76.7 nM
19 | UCGUCAGGCGCGGCCGCCACUGCGGUGAUGUGACAUGAGGAUCACCCAUGUUGUCAUGUGGCACAUAGGACCGGGUGCCUGGCGA [Exclusion - Tryptophan B Attempt #5 (HarryS)] | 56 nM

Same assay, conditions: Eterna round: R107; input ligand: theophylline 20 uM

Row | Sequence | apparent KD of MS2 coat protein
20 | ACGUCCAGGUUAAUCGUGGACAUGGUCGAUACCAGUAUUUUAAUCUACCCUUGGCAGCGACAUGAGGAUCACCCAUGUGCGAUGA [XTheo A #15] | 14.7 nM
21 | AAUCUGAUUGCGGCCGCCACUAAUUUUCCAUGAGUAUUGCAAUUACAUGAGGAUCACCCAUGUCAUAGGACCGGGCAUGACAUCU [theeternabot_sameState_MS2_Trp_B_45] | 202 nM
22 | CGCGCGACAUGAGGAUCACCCAUGUUCCCUCGAGGACCGGUACGGCCGCCACUCGAGGACAUGAGCAUCAGCCAUGUACCGGUCA [Default title] | 54.6 nM
23 | CUGUACAUCUCGGCCGCCACUGCUGACAUGGGAGUCACCCAUGUCCACAUGAGGAUCACCCAUGUCAGGACCGGGAGGUGUGCAG [SSTryp B #25] | 272 nM
24 | UAUGCACAUGAGGAUCACCCAUGUAUGGAAGGAGCGGUGAAUGAACCAGGUAGGUCGCCAUGGUGAGGAUCAUCUAUGUAAUCGU [Exclusion - Arginine A (Freestyle 7)] | 117 nM
25 | CCCAGUUAGAUCAAAGGAAUUAUACUCGAAGGAGCGUCAUAGUAGGCAGGUAGGUCGCGAGACAUGAGGAUCACCCAUGUAGAGA [azqmullin] | 51.2 nM
26 | AACAUGAGGACGGAUACCAGUCACAUGAGGAUCACCCAUGUACAUGAGGAUCACCCAUGUGGCCCUUGGCAGCCGCAUGUGAUCA [Exclusion Theophylline B 4] | 308 nM
27 | UGGUGUAGGGUAAAUAGGAUUAGUACAGAAGGAGCGCGAAUAAACGCAGGUAGGUCGCUGGAAUAAACAUGAGGAUCACCCAUGU [Same State Arginine A GF 27] | 27.4 nM
28 | GGAUAGGACACGGCCGCCACUAGCUAGGAUACUAGCAACAUUUCCUCGCAUGAGGAUCACCCAUGUAGGACCGGGUGUCCUAUCG | 638 nM
29 | AAAAUCCUCCAUGAGGAUCACCCAUGGGAAGGAGCGCCCGAAAGGGCAGGUAGGUCGCCCAUGAGGAUCACCCAUGGAACCUAAA [ArgAX 26 #DoubleMS2 #OpenEnded #AlternativeMS2] | 112 nM
30 | UUUCAGUGGACGGCCGCCACUGAAGUCGAUACAAUCAUGUAGAACAUGAGGAUCACCCAUGUAGUCAGGACCGGGUCCAAUGACU [Tryp B SS t3] | 21.3 nM
31 | UGCCGAGACGUGGAUUACCCGUGUACCGAAGGAGCGCCCGAAAGGGCAGGUAGGUCGCGGAGGACAUGAGGAUCACCCAUGUUGA | 43.7 nM
32 | UUAGAUUGCCGAAGGAGCGAGAUAGCCUACAUGAGGAUCACCCAUGUAGAAACGGGCUGAUCUCAGGUAGGUCGCGGCAGGUAGC [Soaquatan] | 27.4 nM
33 | UGAUUGAACGGAAGGAGCGUGUAAGAACAAGAACAUGAGGAUCACCCAUGUAUUAAUUUAACACAGGUAGGUCGCCGAGAGAUUG [11.D] | 15.2 nM
34 | AGAUUCGACACGGCCGCCACUUGUGGUGGAUUAUCCAGUGUCGAACAUGAGGAUCACCCAUGUACAAGGACCGGGUGUUGAGUCU [XTryp B #19] | 79.3 nM
35 | UCGUGUGUUUCGGAUACCAGUGAAAUCGAUACAUGAGGAUCACCCAUGUGAGAGGAUGUACACCCUUGGCAGCUGUCUGUAUCGG [asczmullin] | 58.6 nM
36 | AUGUAAGUGGUGUCACUGUGGUCUAGUGAUACCAGUAUCGAAAGAUACCCUUGGCAGCGCUAGAACAUGAGGAUCACCCAUGUUU [#24 Exclusion-TheophyllineA] | 74.8 nM
37 | GCUGCACAUUCGGCCGCCACUGCUGUUACAGGAAGCUAUAGCUCACAUGAGGAUCACCCAUGUCCCAGGACCGGGAAAGUAUGGA [theeternabot_sameState_MS2_Trp_B_39] | 79.2 nM
38 | GGACUAACCAGAAGGAGCGACACAGCAGAAACUGCAAAUCCUCCGCACGAGGAUCACCCGUGUCAGGUAGGUCGCUGGUUAGUCG [ArgBX 28] | 55.9 nM
